The source of these data is the Immune Epitope Database (IEDB).

Some results are limits rather than exact numbers.

Assay in all cases: IEDB peptide-MHC binding, purified MHC/competitive/radioactivity; filed as Kd, often an IC50 or EC50 that approximates it; ≥ and ≤ were set here for values at or beyond the usual limits of such assays
Experiment [1] has as its target HLA-A*02:06.
Experiment [2] concerns the target HLA-A*02:02.
The target of experiment [3] is HLA-A*02:03.
Experiment [4] addresses HLA-A*03:01.
Experiment [5] deals with HLA-A*11:01.
Experiment [6] addresses HLA-A*31:01.
For experiment [7], the target named is HLA-A*33:01.
In experiment [8] the target is HLA-A*68:01.
Where [9] appears, read: source organism: Dengue virus 3 Martinique/1243/1999.
Where [10] appears, read: source organism: SARS coronavirus Tor2.
Where [11] appears, read: source organism: Lymphocytic choriomeningitis virus (strain Armstrong).
[12] abbreviates: source organism: Dengue virus 4 Dominica/814669/1981.
The mark [13] stands for this setting: source organism: Vaccinia virus WR.
The mark [14] stands for this setting: source organism: Dengue virus 1 Brazil/97-11/1997.
The mark [15] stands for this setting: source organism: Dengue virus 4 Philippines/H241/1956.
Setting [16] is: source organism: Vaccinia virus Copenhagen.

In general, Kd refers to a measure of binding affinity in units of concentration. In the case of AIVLEFFMMV, in experiment [1] (setting [9]), the Kd was found to be 7.87 nM.
With ALDGVLSTFV, the results for the Kd in experiment [2] (setting [10]), in experiment [3] (setting [10]) and in experiment [1] (setting [10]) were 3.26 nM, 27.9 nM and 140 nM, respectively.
In the case of ALMDCIIFES, the values for the Kd in experiment [2] (setting [11]), in experiment [3] (setting [11]) and in experiment [1] (setting [11]) were 2.13 nM, 16.4 nM and 12.8 nM, respectively.
With ALVLLILMTA, the Kd was found to be 67.2 nM in experiment [2] (setting [10]), 50.7 nM in experiment [3] (setting [10]) and 61.4 nM in experiment [1] (setting [10]).
Consider AMHSALAGA, for which the Kd in experiment [3] (setting [12]) is 8.58 nM.
Consider CTINVNSLAL, for which the Kd in experiment [2] (setting [13]) turned out to be 494 nM; in experiment [3] (setting [13]), 1040 nM; in experiment [1] (setting [13]), 216 nM.
Regarding CTMERTNDL, the dissociation constant Kd in experiment [2] (setting [13]) was 36.2 nM; in experiment [3] (setting [13]), 25.5 nM; in experiment [1] (setting [13]), 95.7 nM.
As to CVDIFTEGKI, the dissociation constant Kd in experiment [2] (setting [13]) was not below 70000 nM; in experiment [3] (setting [13]), 17500 nM; in experiment [1] (setting [13]), not below 20900 nM.
As for DIISSKQYPA, the Kd in experiment [2] (setting [13]) worked out at 552 nM; in experiment [3] (setting [13]), 2430 nM; in experiment [1] (setting [13]), 3100 nM.
In the case of DIPTFNSLNT, the Kd stood at 2020 nM in experiment [2] (setting [13]), 16600 nM in experiment [3] (setting [13]) and 45.3 nM in experiment [1] (setting [13]).
Turning to DLEALKKETI, the Kd in experiment [1] (source organism: Homo sapiens) was not below 97400 nM.
Take DTMRIYCSL: the Kd in experiment [2] (setting [13]) was 5840 nM; in experiment [3] (setting [13]), 5460 nM; in experiment [1] (setting [13]), 2920 nM.
For EAAAATCALV, in that order: 1810 nM, 248 nM and 60.1 nM.
EIMDKEQLL: the figures for the Kd in experiment [2] (setting [13]), in experiment [3] (setting [13]) and in experiment [1] (setting [13]) were 183 nM, 427 nM and not below 26500 nM, respectively.
Regarding ELAAHQKKIL, the Kd in experiment [3] (source organism: Homo sapiens) is 19000 nM.
ELIDVLKTRL: the Kd in experiment [2] (setting [13]) turned out to be 262 nM; in experiment [3] (setting [13]), 118 nM; in experiment [1] (setting [13]), 1990 nM.
For ELTTVFIKYV, in that order: 2790 nM, 719 nM and 463 nM.
With ETIQKDINIT, the Kd in experiment [2] (setting [13]) was determined as 354 nM; in experiment [3] (setting [13]), 10.1 nM; in experiment [1] (setting [13]) it was 112 nM.
FAISYCRAFI: the Kd in experiment [2] (setting [13]) stood at 105 nM; in experiment [3] (setting [13]), 38.3 nM; in experiment [1] (setting [13]), 34.5 nM.
As for FKMRPMFAV, the Kd in experiment [1] (setting [14]) was found to be 55.5 nM.
Take FLDWIKDIM: the Kd in experiment [2] (setting [13]) was found to be 0.78 nM; in experiment [3] (setting [13]) it was 297 nM; in experiment [1] (setting [13]) it was 162 nM.
As for FMTATPPGTA, the dissociation constant (Kd) in experiment [3] (setting [9]) is 2.17 nM.
In the case of FQRALIFIL, the dissociation constant (Kd) in experiment [1] (source organism: Dengue virus 2 Jamaica/1409/1983) was 16.9 nM.
Regarding FVATFRDML, the Kd was determined as 2350 nM in experiment [2] (setting [13]), 206 nM in experiment [3] (setting [13]) and 487 nM in experiment [1] (setting [13]).
As to ILNAHKDGV, in experiment [3] (setting [12]), the Kd is 329 nM.
On to KLRDSYTQV, for which the Kd in experiment [3] (source organism: Dengue virus 1 Nauru/West Pac/1974) was determined as 16 nM.
As to KVDNFTMGV, the Kd in experiment [1] (setting [9]) came out at 4.24 nM.
LMLVTPSMTM: in experiment [1] (setting [9]), the Kd turned out to be 974 nM.
In the case of NLKYSVIVTV, the Kd in experiment [3] (setting [14]) was determined as 5.6 nM.
As for RVILAGPIPV, the figures for the Kd in experiment [3] (setting [15]) and in experiment [1] (setting [15]) were 8.4 nM and 33.5 nM, respectively.
Turning to SVKGLTPSK, the dissociation constant (Kd) in experiment [4] (setting [10]) was 7.56 nM; in experiment [5] (setting [10]), 13.2 nM; in experiment [6] (setting [10]), 171 nM; in experiment [7] (setting [10]), 9270 nM; in experiment [8] (setting [10]), 180 nM.
In the case of SVLCVKKFY, the dissociation constant Kd in experiment [4] (setting [13]) is 13300 nM; in experiment [5] (setting [13]), 372 nM; in experiment [6] (setting [13]), 7980 nM; in experiment [7] (setting [13]) it was 12900 nM; in experiment [8] (setting [13]), 2100 nM.
SVLDIISSK: the Kd in experiment [4] (setting [16]) stood at 23.4 nM; in experiment [5] (setting [16]) it was 6.72 nM; in experiment [6] (setting [16]), 1670 nM; in experiment [7] (setting [16]), 4410 nM; in experiment [8] (setting [16]), 184 nM.
Regarding SYQYLIIQNR, the dissociation constant (Kd) in experiment [4] (setting [11]) is 9780 nM; in experiment [5] (setting [11]), not below 69700 nM; in experiment [6] (setting [11]), 0.953 nM; in experiment [7] (setting [11]), 54.3 nM; in experiment [8] (setting [11]), 1690 nM.
For TAVAKCNVNH, the equilibrium dissociation constant (Kd) in experiment [4] (setting [11]) was not below 70000 nM; in experiment [5] (setting [11]), not below 69700 nM; in experiment [6] (setting [11]), not below 70000 nM; in experiment [7] (setting [11]), not below 66800 nM; in experiment [8] (setting [11]), not below 65300 nM.
On to TIRHMWSVVY, for which the Kd was 294 nM in experiment [4] (setting [13]); 3080 nM in experiment [5] (setting [13]); not below 57000 nM in experiment [6] (setting [13]); not below 70000 nM in experiment [7] (setting [13]); 2860 nM in experiment [8] (setting [13]).
With TLISLNSMY, the dissociation constant Kd in experiment [4] (setting [13]) was 155 nM; in experiment [5] (setting [13]), 282 nM; in experiment [6] (setting [13]) it was 8060 nM; in experiment [7] (setting [13]), 15000 nM; in experiment [8] (setting [13]) it was 46.8 nM.
Consider TLYVKALTK, for which the Kd in experiment [4] (setting [13]) came to 1.93 nM; in experiment [5] (setting [13]), 23.9 nM; in experiment [6] (setting [13]) it was 2920 nM; in experiment [7] (setting [13]), 15500 nM; in experiment [8] (setting [13]), 185 nM.
Turning to TQHGTILIKV, the dissociation constant Kd in experiment [1] (setting [9]) turned out to be 526 nM.
Regarding TQIFEVYWY, the Kd in experiment [4] (setting [13]) stood at 1850 nM; in experiment [5] (setting [13]), 353 nM; in experiment [6] (setting [13]) it was 3800 nM; in experiment [7] (setting [13]) it was 10900 nM; in experiment [8] (setting [13]) it was 733 nM.
Take TSSFREKSR: the Kd in experiment [4] (setting [13]) was not below 65000 nM; in experiment [5] (setting [13]) it was 5750 nM; in experiment [6] (setting [13]), 132 nM; in experiment [7] (setting [13]) it was 844 nM; in experiment [8] (setting [13]), 132 nM.
In the case of TSVDIETAIR, the Kd in experiment [4] (setting [13]) is 2980 nM; in experiment [5] (setting [13]), 581 nM; in experiment [6] (setting [13]), 922 nM; in experiment [7] (setting [13]), 1440 nM; in experiment [8] (setting [13]), 1.35 nM.
Take TVVIGTSKFY: the Kd came out at 1100 nM in experiment [4] (setting [10]); 809 nM in experiment [5] (setting [10]); 1860 nM in experiment [6] (setting [10]); 1240 nM in experiment [7] (setting [10]); 1500 nM in experiment [8] (setting [10]).
For the sequence TYLGPLSCK, the dissociation constant Kd in experiment [4] (setting [11]) amounted to 165 nM; in experiment [5] (setting [11]), 21.3 nM; in experiment [6] (setting [11]), 1690 nM; in experiment [7] (setting [11]) it was 154 nM; in experiment [8] (setting [11]), 375 nM.
VINAPIKEFK: the Kd in experiment [4] (setting [13]) was 4.87 nM; in experiment [5] (setting [13]) it was 1.31 nM; in experiment [6] (setting [13]), 227 nM; in experiment [7] (setting [13]), 83.8 nM; in experiment [8] (setting [13]), 6.75 nM.
VMAFIAFLR: the dissociation constant (Kd) in experiment [4] (setting [14]) came out at 38.5 nM; in experiment [5] (setting [14]) it was 171 nM; in experiment [6] (setting [14]), 1.33 nM; in experiment [7] (setting [14]), 4.68 nM; in experiment [8] (setting [14]), 4.51 nM.
As to VSLSAYIIR, the Kd was determined as 8560 nM in experiment [4] (setting [13]); 1110 nM in experiment [5] (setting [13]); 40.2 nM in experiment [6] (setting [13]); 4000 nM in experiment [7] (setting [13]); 3310 nM in experiment [8] (setting [13]).
With VSMTYLYNK, the dissociation constant (Kd) amounted to 72.5 nM in experiment [4] (setting [13]); 1.36 nM in experiment [5] (setting [13]); 2.76 nM in experiment [6] (setting [13]); 806 nM in experiment [7] (setting [13]); 82.7 nM in experiment [8] (setting [13]).
Consider VTLAILTALR, for which the equilibrium dissociation constant (Kd) in experiment [4] (setting [10]) was 218 nM; in experiment [5] (setting [10]), 149 nM; in experiment [6] (setting [10]) it was 13.4 nM; in experiment [7] (setting [10]), 310 nM; in experiment [8] (setting [10]) it was 14.1 nM.
On to VTTIMFLAR, for which the Kd in experiment [4] (setting [10]) amounted to 329 nM; in experiment [5] (setting [10]) it was 24.6 nM; in experiment [6] (setting [10]), 45.4 nM; in experiment [7] (setting [10]), 167 nM; in experiment [8] (setting [10]) it was 84.6 nM.
For WFFNNYLRK, in that order: 403 nM, 81.8 nM, 3880 nM, 894 nM and 391 nM.
Consider YANCSSISIK, for which the dissociation constant Kd was found to be 452 nM in experiment [4] (setting [13]); 115 nM in experiment [5] (setting [13]); 4310 nM in experiment [6] (setting [13]); 18100 nM in experiment [7] (setting [13]); 51.7 nM in experiment [8] (setting [13]).
For YSKLTKDRK, in that order: not below 78000 nM, 4850 nM, 4320 nM, not below 23900 nM and 52.3 nM.
Take YVLGVFLRKL: in experiment [1] (setting [12]), the equilibrium dissociation constant (Kd) was found to be 81.5 nM.
